Experimental data from patent US20090312277.

Target: p21/WAF1 (UniProt P38936)
Sequence (P38936 whole entry): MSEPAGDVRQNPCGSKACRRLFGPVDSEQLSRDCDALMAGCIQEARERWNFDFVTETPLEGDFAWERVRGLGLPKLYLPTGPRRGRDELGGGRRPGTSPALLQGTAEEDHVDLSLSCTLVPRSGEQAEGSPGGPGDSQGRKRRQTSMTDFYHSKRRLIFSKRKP

Chain of cathepsin L (chain, as listed by the source): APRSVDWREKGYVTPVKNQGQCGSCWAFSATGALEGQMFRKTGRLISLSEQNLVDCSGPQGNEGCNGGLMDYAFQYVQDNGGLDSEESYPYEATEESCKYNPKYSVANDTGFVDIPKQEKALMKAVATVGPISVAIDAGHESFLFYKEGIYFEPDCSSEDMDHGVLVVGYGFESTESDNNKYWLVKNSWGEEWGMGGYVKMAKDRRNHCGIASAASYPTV

Q: cathepsin L was tested. Which cleavage in vitro did it give?
A: The cleavage in vitro was “p2l/WAF1 is readily cleaved by cathepsin L in vitro”.
